From patent publication US6607880

T1: 35S-labelled transcription-translation product of p28 Bap31 cDNA
T1 chain: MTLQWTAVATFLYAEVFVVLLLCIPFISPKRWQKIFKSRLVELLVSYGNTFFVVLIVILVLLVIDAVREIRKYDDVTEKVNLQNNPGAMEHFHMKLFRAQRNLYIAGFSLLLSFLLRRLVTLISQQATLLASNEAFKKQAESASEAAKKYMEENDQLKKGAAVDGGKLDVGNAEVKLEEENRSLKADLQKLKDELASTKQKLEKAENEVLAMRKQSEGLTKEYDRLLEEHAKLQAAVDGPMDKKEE

B1: ICE (caspase-1) (protein)
chain: NPAMPTSSGSEGNVKLCSLEEAQRIWKQKSAEIYPIMDKSSRTRLALIICNEEFDSIPRRTGAEVDITGMTMLLQNLGYSVDVKKNLTASDMTTELEAFAHRPEHKTSDSTFLVFMSHGIREGICGKKHSEQVPDILQLNAIFNMLNTKNCPSLKDKPKVIIIQACRGDSPGVVWFKDSVGVSGNLSLPTTEEFEDDAIKKAHIEKDFIAFCSSTPDNVSWRHPTMGSVFIGRLIEHMQEYACSCDVEEIFRKVRFSFEQPDGRAQMPTTERVTLTRCFYLFPGH
B2: FLICE (caspase-8) (protein)
chain: SESQTLDKVYQMKSKPRGYCLIINNHNFAKAREKVPKLHSIRDRNGTHLDAGALTTTFEELHFEIKPHDDCTVEQIYEILKIYQLMDHSNMDCFICCILSHGDKGIIYGTDGQEAPIYELTSQFTGLKCPSLAGKPKVFFIQACQGDNYQKGIPVETDSEEQPYLEMDLSSPQTRYIPDEADFLLGMATVNNCVSYRNPAEGTWYIQSLCQSLRERCPRGDDILTILTEVNYEVSNKDDKKNMGKQMPQPTFTLRKKLVFPSD

Biological target: T1, 35S-labelled transcription-translation …

Row | Protein | cleavage of 35S-labelled p28 Bap31 in vitro (SDS-PAGE) | amount of p20 cleavage product (Phosphorimager)
1 | B1 | ICE (caspase-1), on the other hand, generated two products (denoted “a” and “b”) whose apparent sizes in SDS gels (approximately 27 kDA and 20 kDa, respectively) | –
2 | B2 | – | p28 Bap31 was more sensitive to cleavage by FLICE (caspase-8) than ICE (caspase-1)
